We go through one molecule from patent publication US20210340231A1 (FAPON BIOTECH, published 2021).

In experiment [1] the target is T1, CTNI quality control recombinant protein (PK2-CTNI-1, 170120, produced by the applicant) (human, UniProt P19429 2-210, limits assumed).
T1 construct: also called cardiac troponin I
Description: AMC sensor kinetics, antibody captured, cTnI analyte. The procedure: Using the AMC sensor, the purified antibody was diluted with PBST to 10 μg/ml, and the CTNI quality control recombinant protein (PK2-CTNI-1, 170120, produced by the applicant) was serially diluted with PBST to 400 nmol/ml, 200 nmol/ml, 100 nmol/ml, 50 nmol/ml, 25 nmol/ml, 12.5 nmol/ml, 6.25 nmol/ml, and 0 nmol/ml.

In experiment [2] the target is T1, CTNI quality control recombinant …. Description: indirect ELISA, cTnI coated 1 ug/ml, antibody 8 ug/ml. The procedure:
(§1) The cTnI quality control after diluted to 1 μg/ml with the coating solution was used for microplate coating at 100 uL per well and left at 4° C. overnight. The next day, the microplate was washed twice with the wash solution and tapped for drying. The blocking solution (20% BSA+80% PBS) was added at 120 μL per well and left for 1 h at 37° C., and the microplate was tapped for drying. The diluted cTn monoclonal antibody was added at 100 μL per well and left for 30 min at 37° C.; then the microplate was washed 5 times with the wash solution and tapped for drying. The goat anti-mouse IgG-HRP was added at 100 μL per well and left for 30 min at 37° C.; then the microplate was washed 5 times with the wash solution and tapped for drying. Colour-developing solution A was added at 50 μL per well, followed by colour-developing solution B at 50 μL per well; the mixed solution was left for 10 min; and stopping solution was added at 50 μL per well. The OD value was read out at 450 nm (reference at 630 nm) on the microplate reader.
In general terms: An ELISA detects its analyte on a solid surface through an enzyme-linked reagent.

Experiment [3] shares this target. Kind of experiment: indirect ELISA, cTnI coated 1 ug/ml, antibody 40 ug/ml. As for the experimental part: as §1
For experiment [4] the target is unchanged. Description: indirect ELISA, cTnI coated 1 ug/ml, antibody 1.6 ug/ml. The procedure: as §1
For experiment [5] the target is unchanged. Description: indirect ELISA, cTnI coated 1 ug/ml, antibody 200 ug/ml. The procedure:
as §1

For experiment [6] the target is unchanged. Kind of experiment: indirect ELISA, cTnI coated 1 ug/ml, antibody 0.32 ug/ml. As for the experimental part:
as §1

Experiment [7] shares this target. Kind of experiment: indirect ELISA, cTnI coated 1 ug/ml, antibody 1000 ug/ml. The procedure:
as §1

The target is the same in experiment [8]. Kind of experiment: indirect ELISA, cTnI coated 1 ug/ml, antibody 0 ug/ml (blank). As for the experimental part: as §1

T1 sequence (P19429 2-210 limits assumed): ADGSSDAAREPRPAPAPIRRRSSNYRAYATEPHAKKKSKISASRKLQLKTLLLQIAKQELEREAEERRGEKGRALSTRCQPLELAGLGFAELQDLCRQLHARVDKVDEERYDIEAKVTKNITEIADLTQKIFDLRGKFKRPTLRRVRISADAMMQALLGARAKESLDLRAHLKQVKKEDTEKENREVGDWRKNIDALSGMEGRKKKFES

B1: Mutation 1 (antibody, V domains shown)
VH: EVQLQQSGAELVKPGASVKLSCTASGFNLKDYFMHWMKQRTEQGLDWIGRIDPEDAETRYAPEFQGKATITADTSSNTAYLQLSTLTSEDTAVYYCARYYSSYIPFVYWGQGTLVTASA
VL: DVVMTQTPLSLSVSLGDQASISCRSSQSIIYSNRHTYLHWYLQKPGQSPKLLIFQISNRFSGVPDRFSGSGSGTDFTLKINRVEAEDLGVYFCSQSTHLPFTFGSGTKLEIKR
notes: No residue numbers are printed, so each chain is built as FR1-CDR1-FR2-CDR2-FR3-CDR3-FR4-constant
For orientation: Kd means the constant that tells how readily two partners part at equilibrium. In general, koff refers to the first-order rate constant of dissociation. As usually defined, the kon is the second-order rate constant of association. Take B1: the Kd in experiment [1] worked out at 0.751 nM. Besides, the koff in experiment [1] is 0.000155 s⁻¹. The kon in experiment [1] amounted to 206000 M⁻¹ s⁻¹. Besides, the “OD 450 nm (reference 630 nm)” value in experiment [2] is 2.07 OD; in experiment [3], 2.35 OD; in experiment [4], 0.973 OD; in experiment [5], 2.4 OD; in experiment [6], 0.341 OD; in experiment [7], 2.4 OD. The “OD 450 nm (reference 630 nm)” value in experiment [8] was found to be 0.032 OD.
